One substance from paper PMC11090050 can be followed below.

The target in the assay is MBP-Rubicon RH (Rubicon Homology domain of Rubicon, wild type) (UniProt Q92622). Kind of assay: ITC; MBP-Rubicon RH (80 µM) in the chamber, RAB7A (800 µM) in the syringe; 13 injections at 25°C; 50 mM HEPES 7.5, 150 mM NaCl, 2 mM MgCl2, 10 mM TCEP; simple single-binding-site fit. For orientation: Isothermal titration calorimetry measures the heat released or taken up as one component is titrated into another.
UniProt Q92622, sequence (Q92622 699-949): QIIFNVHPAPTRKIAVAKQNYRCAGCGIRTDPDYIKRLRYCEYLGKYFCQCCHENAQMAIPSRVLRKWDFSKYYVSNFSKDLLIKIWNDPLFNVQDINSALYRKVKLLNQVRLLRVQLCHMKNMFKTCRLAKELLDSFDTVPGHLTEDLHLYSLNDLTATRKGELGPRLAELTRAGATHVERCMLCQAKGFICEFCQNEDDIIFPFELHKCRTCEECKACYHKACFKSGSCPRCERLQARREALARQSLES

The term Kd denotes the constant that tells how readily two partners part at equilibrium. One may read the stoichiometry N as the number of molecules, sites or subunits per partner or assembly. The substance “RAB7A (recombinantly purified, unlabelled, as used for ITC) (from UniProt P51149 2-182) (natural protein)” came in with a Kd of 1700 nM and a stoichiometry N of 0.7.
